Measurements published in US9453050B2, “Compositions for treating glioma” (GLIA SP Z.O.O., priority 2011, dated 2016).

Tests used:
[1] = system: osteopontin (spp1) mRNA in C6 glioma cells; experiment: qPCR of osteopontin silencing in stable C6 glioma clones; format: cell-based, rat; details: stable C6 glioma cell lines; FIGS. 7A and C
Method: Forward and reverse oligonucleotides were incubated in 0.1 M NaCl for 3 min at 94° C., followed by slow cooling to 37° C. for 1 h. The annealed DNA was ligated with pSilencer 2.0-U6 (Ambion, Germany) at BamHI and HindIII sites. After transformation into E. coli, plasmids were amplified, isolated and the sequences were verified by sequencing. The pSilencer-spp1, pSilencer-mfg8 pSilencer-GM-CSF and pSilencer 2.0-U6 Negative Control (Ambion) vectors were purified with Qiagen Plasmid Maxi Kit and 1.6 μg of each DNA was transfected into cells using 2 μl Lipofectamine-2000 (Invitrogen, UK). One day after transfection, hygromycin B (200 μg/ml) was added. Resistant clones were picked after 2 weeks and analysed for expression of appropriate mRNA by qRT-PCR.
RNA was isolated with RNeasy Mini Kit (Qiagen). First-strand cDNA was synthesized from 2 μg of total RNA (DNase-treated) in a 20 μl reverse transcriptase reaction mixture. […] The expression of Osteopontin, and lactadherin in C6 rat glioma cells and primary astrocytes was evaluated using qPCR. The expression of GM-CSF in GL261 glioma cells and primary astrocytes was evaluated using qPCR. […]
Reaction volume (20 μl) consisted of cDNA equivalent to 50 ng RNA, 1×SYBR Green PCR master mix (Applied Biosystems) and 0.9 μM of each primer. […] Relative quantification of gene expression was determined using the comparative CT method. […]

microglia cells = experiment: qPCR of GCM-induced genes in microglia exposed to GCM of shRNA-expressing C6 glioma cells; format: cell-based, rat; details: FIG. 7D
Method: Total RNA (2 μg) isolated from microglia cultures untreated or treated for 6 h with LPS or G-CM was used as a template to generate cDNA. As endogenous control 18S (Hs99999901_s1) rRNA was applied. Gene expression quantification was performed using the Applied Biosystem TaqMan® The real time amplifications were performed in duplicates in a 20 μl reaction volume containing 2×SYBR PCR MasterMix and a set of primers designed using PRIMER EXPRESS software for the following genes: iNOS, COX-2, II1beta, TNF alpha, MMP-2, MMP-9, MMP-14, Arg1, Id1 and c-Myc. The amount of target mRNA was first normalized to the 18S RNA expression level and then to a control. Data were analysed by the Relative Quantification (^ΔΔCt) method using 7500 System SDS software (Applied Biosystems). The expression of each product was normalized to 18S rRNA and is shown as the ratio of the target gene to 18S gene expression, calculated by 2^−ΔΔCt.
To investigate the role of identified proteins in GCM-induced activation of microglia cells, stable C6 glioma cell lines expressing shRNAs specific to osteopontin (shSPP1), or a control, negative shRNA (shNeg) were generated. Silencing efficiency was approximately 98.5% (FIGS. 7A and C). Silencing of […] inhibited GCM-induced expression c-Myc and smad7 in microglia cells (FIG. 7B). […]

C6 glioma cells = experiment: Matrigel matrix invasion of C6 glioma cells in presence of microglia; format: cell-based, rat; details: laser scanning cytometry; FIG. 7E
Method: The invasion assay was performed as described (Wesolowska et al. 2008, Kwiatkowska et al. 2011). Briefly, 24-well tissue culture inserts (12 μm pore size Transwell, Corning, N.Y., USA) were coated with the Growth Factor Reduced Matrigel™ Matrix (BD Biosciences, San Diego. Calif., USA). 100 μl of the Matrigel™ Matrix (1 mg/ml) diluted in distilled water, was dried under sterile conditions (37° C.) for 5-6 hours and reconstituted for 30 minutes in 200 μl of culture medium. C6 glioma cells (1.5×10^4/insert) were seeded on Matrigel-coated membrane in the serum-reduced medium (2% FBS) and exposed to microglia or left untreated. After 48 h cells were fixed and cell nuclei stained with DAPI. The membranes from Transwell® inserts were cut out and the total number of cells that migrated through the Matrigel was determined using Laser Scanning Cytometry (LSC, CompuCyte). All experiments were performed in triplicate. The data from three independent experiments were pooled and expressed as the average number of cells±S.D.
To investigate the role of identified proteins in GCM-induced activation of microglia cells, stable C6 glioma cell lines expressing shRNAs specific to osteopontin (shSPP1), or a control, negative shRNA (shNeg) were generated. Silencing efficiency was approximately 98.5% (FIGS. 7A and C). […]

C6 glioma = C6 glioma implantation into striatum of Wistar rats; format: in vivo, rat; details: 15 days after implantation, FIG. 19C
Method: RNA was isolated from rat C6 glioma clones stably expressing shRNA against osteopontin cells and cDNA was synthesized using reverse-transcriptase and random hexamer primers. Knock down efficiency of osteopontin was confirmed by Real Time PCR (FIG. 19A). C6 glioma cells expressing control shRNA (shNeg) or glioma cells depleted of osteopontin (shSPP1) (5×10^4 cells/2.5 μl of DMEM) were implanted into the right striatum of 8-10 weeks old Wistar rats. 15 days after glioma implantation, the animals were sacrificed and intracardially perfused with 4% paraformaldehyde. The brains were removed, frozen with dry CO^2 and serial 20- or 12-μm-thick coronal sections were collected using a cryostat. To quantify the tumor size, 20 μm-thick sections were stained with toluidine blue, images were acquired using a Leica DM4000B microscope. Tumor areas were measured using ImageJ software in an every fourth brain slice and tumor volumes were calculated according to the Cavalieri principle (Gabrusiewicz et al, 2011). […] Moreover, gliomas from implanted C6-Neg were of similar sizes as WT C6 cells (n=5, 28.33±14.53 mm^3). […] Results are expressed as the means±s.d. from 2 independent experiments (U-Mann-Whitney test).

EGFP-GL261 glioma = experiment: Intracranial EGFP-GL261 glioma implantation in C57BL/6 mice; format: in vivo, mouse
Method: Adult C57BL/6 mice (12-16 wk) were anesthetized with an i.p. injection of ketamine (75 mg/kg) and medetomidine (1 mg/kg). EGFP-GL261 glioma cells, shGM-CSF glioma cells or shNeg glioma cells (8×10^4 cells in 1 μl of DMEM) were inoculated in a right striatum using 1-μl syringe with a 26-gauge needle in a stereotactic apparatus according to the coordinates (+1.5 mm AP, −1.5 mL). Mice were resuscitated using i.p. administration of atipamazole and […] Tolfedine 4% (4 mg/kg s.c.). At day 15th after glioma implantation, the animals were anesthetized, sacrificed and perfused with PBS or PBS and 4% paraformaldehyde in PBS. The brains were removed and minced or post-fixed for 24 h in the same fixative solution and placed in 30% sucrose in PBS at 4° C. Next, brains were frozen with dry CO2 and serial 20-μm-thick coronal sections were collected using a cryostat. Images were acquired using a Leica DM4000B microscope.
Tumor areas in coronal sections were measured using Image Pro-Plus software in an every second brain slice and tumor volumes were calculated according to the Cavalieri principle.
Staining with anti-Iba1 and anti-vWF antibodies was performed to detect microglia/macrophages and blood vessels, respectively. Sections were incubated with 0.5% H2O2 in PBS for 30 min at RT, permeabilized and blocked with 10% donkey serum with the addition of 0.3% Triton X-100 in PBS, and then incubated with the primary antibodies: anti-Iba-1 (rabbit, polyclonal, WAKO, 1:1000) or anti-vWF (rabbit, polyclonal, Abcam, 1:1000) for 24 h at 4° C. and with the secondary goat anti-rabbit biotinylated IgG for 2 hr at RT. The primary and secondary antibodies were diluted in PBS containing 0.1% Triton X-100 and 3% donkey serum. The sections were exposed to extravidin-peroxidase complex (1:200) for 1 h at RT and peroxidase activity was visualized with 0.02% 3.3′-diaminobenzidine (DAB) and 0.01% H2O2 in Tris buffer (pH 7.6). Sections were dehydrated and mounted with Histofluid (Sigma, Germany). […]

[2] = system: EGFP-GL261 glioma cells in murine brain slices; experiment: Tumor invasion in organotypical brain slice cultures; format: cell-based, mouse; details: 5d after injection; FIGS. 12A and B
Method: The organotypical brain slice cultures were obtained from 16-day-old male C57/BL6 mice (animal breeding facility, Schonwalde, Germany). The brain slices cut into 250 μm sections were transferred to a Transwell insert in a 6-well plate (Becton Dickinson, Lincoln Park, N.J., USA) and were incubated in 1 ml of DMEM (Gibco, Gaithersburg, Md., USA) supplemented with 10% FCS (Atlanta Biological, USA), 0.2 mM glutamine and antibiotics. After overnight equilibration, medium was exchanged for the cultivation medium containing 25% FCS, 50 mM sodium bicarbonate, 2% glutamine, 25% Hanks balanced salt solution, 1 μg/ml insulin (all from Gibco, Gaithersburg, Md., USA), 2.46 mg/ml glucose (Braun Melsungen AG, Germany), 0.8 μg/ml vitamin C (Sigma-Aldrich, Germany), 5 mM Tris and antibiotics. Slices were injected with 10,000 GFP-GL261 glioblastoma cells (in 0.5 μl) using a syringe mounted to a micromanipulator. […]
To investigate whether GM-CSF expression influences microglia dependent invasion or directly affects glioma invasion, an organotypic brain slice culture was used as a model. Control or GM-CSF-depleted EGFP-GL261 glioma cells were injected into murine brain slices and resulting tumor size was quantified 5d after injection by measuring the projected fluorescent area covered by the EGFP-glioma cells within the slice. […]

[3] = system: intracranial GL261 gliomas; experiment: Survival of mice with intracranial gliomas (Kaplan-Meier); format: in vivo, mouse
Method: Mice were randomly assigned to receive intracranial implantation of shNeg or shRNA glioma cells and observed until becoming moribund. EGFP-GL261 glioma cells, shGM-CSF glioma cells or shNeg glioma cells were inoculated in a right striatum using a syringe with a 26-gauge needle in a stereotactic apparatus according to the coordinates (+1.5 mm AP, −1.5 mL). Mice were resuscitated using i.p. administration of atipamazole and treated with the Tolfedine 4% (4 mg/kg s.c.) analgesic. Kaplan-Meier analysis of mice implanted with shGM-CSF and shNeg glioma cells (n=10 mice per group) was performed.
Two mice having shGM-CSF-gliomas were alive 63 days post implantation.

EGFP-GL261 glioma cells [4] = experiment: BrdU incorporation of glioma cells expressing shGM-CSF; format: cell-based, mouse; details: FIG. 10C
EGFP-GL261 glioma cells [5] = experiment: MTT metabolism test of glioma cells expressing shGM-CSF; format: cell-based, mouse; details: FIG. 10D
Source text: To check if glioma-derived GM-CSF is responsible for recruitment of microglia/macrophages to gliomas and for tumor growth, EGFP-GL261 glioma cells stably depleted of GM-CSF were generated by over-expressing plasmids encoding specific shRNA. Silencing of GM-CSF expression at the mRNA level (FIG. 10A) and at the protein level (FIG. 10B) in two independently derived clones was confirmed by qPCR and ELISA. Two clones derived in parallel and expressing negative shRNA served as controls.

| Molecule | Silencing efficiency [1] | GCM-induced expression arg-1 and smad7 in microglia cells (microglia cells) | microglia-dependent invasion of glioma cells through Matrigel (C6 glioma cells) | tumor volume (mean value) (C6 glioma) | reduction in tumor volumes (C6 glioma; vs C6-Neg) | number of microglia/macrophages (anti-Iba-1 staining) (EGFP-GL261 glioma; vs control gliomas (shNeg), FIGS. 11A and B) | formation of tumor vessels (anti-vWF staining) (EGFP-GL261 glioma; vs controls, FIG. 11C) | reduction of tumor size (EGFP-GL261 glioma; vs shNeg glioma cells, day 15, FIG. 11D-E) | average tumor size smaller than controls (fluorescent area) [2] | mice alive 63 days post implantation ([3]; 63 days post implantation) | survival of mice ([3]; n=10 mice per group, FIG. 16) | proliferation of glioma cells (BrdU incorporation) (EGFP-GL261 glioma cells [4]) | survival of glioma cells (MTT metabolism) (EGFP-GL261 glioma cells [5]) |
| --- | --- | --- | --- | --- | --- | --- | --- | --- | --- | --- | --- | --- | --- |
| shSPP1: shRNA specific to rat osteopontin, oligonucleotides SEQ ID NO: 21 and 22, stably expressed in C6 glioma cells (nucleic acid, the letters are possibly those of the target site) chain 1: GATCCAGCTAGTCCTAGACCCTAATTCAAGAGATTAGGGTCTAGGACTAGCTTGTTTTTTGGAAA chain 2: AGCTTTTCCAAAAAACAAGCTAGTCCTAGACCCTAATCTCTTGAATTAGGGTCTAGGACTAGCTG | approximately 98.5% | inhibited | strongly reduces | 6.03 mm^3 | 88% | – | – | – | – | – | – | – | – |
| shGM-CSF: shRNA to mouse GM-CSF, oligonucleotides SEQ ID NO: 23 and 24, stably expressed in EGFP-GL261 glioma cells (nucleic acid) chain 1: GATCCCGGAAACGGACTGTGAAACATTCAAGAGATGTTTCACAGTCCGTTTCCGGTTTTTTGGAAA chain 2: AGCTTTTCCAAAAAACCGGAAACGGACTGTGAAACATCTCTTGAATGTTTCACAGTCCGTTTCCGG | – | – | – | – | – | reduced number | reduced formation | 65% | 58% | Two | significant survival benefit | did not affect | did not affect |
